Measurements published in WO2023190852A1.

The substances below were run against RBD derived from the Omicron strain (BA.3 strain) (SARS-CoV-2).
For ADG2 (antibody), the binding inhibition rate (%) was less than 80%. Work on AZD1061 (antibody) yielded a binding inhibition rate (%) of less than 80%. In the case of AZD8895 (antibody), the binding inhibition rate (%) is reported as less than 80%. Substance LY_CoV16 (antibody) has a binding inhibition rate (%) of less than 80%. Substance LY_CoV555 (antibody) has a binding inhibition rate (%) of less than 80%. In the case of REGN10933 (antibody), the binding inhibition rate (%) is reported as less than 80%. REGN10987 (antibody) showed a binding inhibition rate (%) of less than 80%. Substance S309 (antibody) has a binding inhibition rate (%) of less than 80%.
